According to article PMC9897490:

Target: FtsZ (wild type, Caulobacter crescentus) (Caulobacter crescentus)
Experiment: BLI

Sequence of FtsZ (wild type, Caulobacter crescentus) (Caulobacter crescentus) (B8H080 whole entry): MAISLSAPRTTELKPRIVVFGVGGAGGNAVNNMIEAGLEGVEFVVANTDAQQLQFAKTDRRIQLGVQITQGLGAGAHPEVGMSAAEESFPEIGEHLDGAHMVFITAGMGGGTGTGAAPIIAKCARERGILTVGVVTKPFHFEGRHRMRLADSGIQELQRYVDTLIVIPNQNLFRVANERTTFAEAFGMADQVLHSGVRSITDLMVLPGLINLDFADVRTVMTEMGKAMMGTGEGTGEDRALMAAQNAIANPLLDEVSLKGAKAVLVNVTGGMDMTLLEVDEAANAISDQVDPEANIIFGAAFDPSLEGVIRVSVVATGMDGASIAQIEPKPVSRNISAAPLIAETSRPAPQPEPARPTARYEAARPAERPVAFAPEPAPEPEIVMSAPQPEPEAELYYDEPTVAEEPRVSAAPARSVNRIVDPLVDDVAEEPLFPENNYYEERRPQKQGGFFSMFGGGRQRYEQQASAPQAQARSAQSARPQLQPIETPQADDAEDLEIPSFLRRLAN

MipZ-His6 (wild type) (enzyme)
Kd: 11 µM
